Reference: CN112794907A (ANHUI ANKE BIOTECHNOLOGY GROUP CO LTD, dated 2021)

Experiments:
rhOX40-Avi-His-bio [1] = molecular target: T1, rhOX40-Avi-His-bio (human, UniProt P43489 29-214, biotin joined covalently to the Avi tag by BirA); experiment: SPR, Biacore T200, rhOX40-Avi-His-bio on SA chip, antibody as analyte
T1 construct: range 29-214; Biotinylated form of rhOX40-Avi-His, captured on the SA chip for SPR; also called 生物素标记的抗原rhOX40-Avi-His-bio; huOX40; not shown: Avi tag and His tag from the vector pCD-Avi-His
T1 sequence (looked up): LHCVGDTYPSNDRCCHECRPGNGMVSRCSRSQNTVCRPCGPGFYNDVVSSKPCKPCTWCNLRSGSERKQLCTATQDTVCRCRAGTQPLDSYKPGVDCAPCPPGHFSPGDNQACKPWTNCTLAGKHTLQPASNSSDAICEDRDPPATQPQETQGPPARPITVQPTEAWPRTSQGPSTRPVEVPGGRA

rhOX40-Avi-His-bio [2] = molecular target: T1, rhOX40-Avi-His-bio; experiment: SPR

Row | Binder | Kd (rhOX40-Avi-His-bio [1]) | fold increase of affinity over A2 (rhOX40-Avi-His-bio [2]) | fold increase of affinity over B11 (rhOX40-Avi-His-bio [2])
1 | 全人源抗huOX40单克隆抗体A2-1 (antibody, IgG1, V domains shown) VH: DVQLQESGPGLVKPSETLSLTCTVSGDSVSDSGAYWVWIRQPPGKGLEWIGTIAPARGDTLYNPSLKSRVTISVDTSKNQFSLKLSSVTAADTSVYYCARDVWYIDYWGQGTLVTVSS VL: DIVLTQSPATLSLSPGERATLSCRASEDIGTWLAWYQQKPGQAPRLLIYHTDLRATGVPTRFSGSGSGTDFTLTISSLEPEDFAVYYCQQYASYPLTFGQGTKLEIK | ~0.2 nM | ~540 倍 | –
2 | 全人源抗huOX40单克隆抗体B11-11 (antibody, IgG1, V domains shown) VH: DVQLQESGPGLVKPSETLSLTCTVSGGSISADGFIWGWIRQPPGKGLEWIGGITTNGGYTDYNPSLKSRVTISVDTSKNQFSLKLSSVTAADTSVYYCARWFWDVSYGFDTWGQGTLVTVSS VL: DIVMTQSPLSLPVTPGEPASISCRSSQSVDSDEYSFMHWYLQKPGQAPQLLIYRTDQRASGVPTRFSGSGSGTDFTLKISRVEAEDVGVYYCQQTPTYTFGQGTKLEIKR | ~0.776 nM | – | ~650 倍
